In IntAct's records for PubMed 10659709:

B1: Regulatory protein NPR1 (Arabidopsis thaliana (Mouse-ear cress)), P93002 (parent)
chain: MDTTIDGFADSYEISSTSFVATDNTDSSIVYLAAEQVLTGPDVSALQLLSNSFESVFDSPDDFYSDAKLVLSDGREVSFHRCVLSARSSFFKSALAAAKKEKDSNNTAAVKLELKEIAKDYEVGFDSVVTVLAYVYSSRVRPPPKGVSECADENCCHVACRPAVDFMLEVLYLAFIFKIPELITLYQRHLLDVVDKVVIEDTLVILKLANICGKACMKLLDRCKEIIVKSNVDMVSLEKSLPEELVKEIIDRRKELGLEVPKVKKHVSNVHKALDSDDIELVKLLLKEDHTNLDDACALHFAVAYCNVKTATDLLKLDLADVNHRNPRGYTVLHVAAMRKEPQLILSLLEKGASASEATLEGRTALMIAKQATMAVECNNIPEQCKHSLKGRLCVEILEQEDKREQIPRDVPPSFAVAADELKMTLLDLENRVALAQRLFPTEAQAAMEIAEMKGTCEFIVTSLEPDRLTGTKRTSPGVKIAPFRILEEHQSRLKALSKTVELGKRFFPRCSAVLDQIMNCEDLTQLACGEDDTAEKRLQKKQRYMEIQETLKKAFSEDNLELGNSSLTDSTSSTSKSTGGKRSNRKLSHRRR
partner: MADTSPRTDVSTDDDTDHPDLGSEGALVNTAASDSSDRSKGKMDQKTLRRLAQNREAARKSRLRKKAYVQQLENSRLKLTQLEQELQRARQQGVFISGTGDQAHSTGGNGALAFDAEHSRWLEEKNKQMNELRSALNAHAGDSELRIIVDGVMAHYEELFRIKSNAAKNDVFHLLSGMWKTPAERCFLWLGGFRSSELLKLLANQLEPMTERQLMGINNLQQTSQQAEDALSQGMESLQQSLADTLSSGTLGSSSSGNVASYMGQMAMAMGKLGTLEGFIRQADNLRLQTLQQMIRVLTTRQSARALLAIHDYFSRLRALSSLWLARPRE
B2: Regulatory protein NPR1 (Arabidopsis thaliana (Mouse-ear cress)), P93002 (parent)
chain: B1 chain
partner: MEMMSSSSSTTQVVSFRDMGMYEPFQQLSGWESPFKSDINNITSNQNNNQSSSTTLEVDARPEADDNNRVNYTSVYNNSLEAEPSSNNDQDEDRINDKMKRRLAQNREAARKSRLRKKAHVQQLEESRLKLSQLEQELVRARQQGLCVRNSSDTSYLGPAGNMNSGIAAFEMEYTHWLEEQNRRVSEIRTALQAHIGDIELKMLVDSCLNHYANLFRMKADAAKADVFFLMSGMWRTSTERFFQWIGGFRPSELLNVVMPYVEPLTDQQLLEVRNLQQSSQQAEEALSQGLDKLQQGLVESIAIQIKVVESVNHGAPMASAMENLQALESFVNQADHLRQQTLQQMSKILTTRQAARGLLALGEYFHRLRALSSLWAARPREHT

Variants of: B1
Conditions: with tga2_arath TGA2, P43273

Row | Variant | effect of a mutation on the interaction
1 | H334Y | disrupting interaction
2 | H300Y | disrupting interaction
3 | C150Y | disrupting interaction
4 | P342S | disrupting interaction

Variants of: B2
Conditions: with tga3_arath TGA3, Q39234

Row | Variant | effect of a mutation on the interaction
5 | H300Y | decreasing interaction strength
6 | C150Y | decreasing interaction strength
7 | H334Y | decreasing interaction strength
8 | P342S | decreasing interaction strength
